We go through 39 variants from the Human Domainome abundance scans (Beltran et al. 2025).

± gives the uncertainty stated by the source.

B1: POU domain, class 4, transcription factor 2, residues 256 to 327; numbered along this chain, Q12837 (parent)
chain: RDLEAFAERFKQRRIKLGVTQADVGSALANLKIPGVGSLSQSTICRFESLTLSHNNMIALKPILQAWLEEAE

In this data set the parent is B1. Briefly: abundance fitness (aPCA) (normalised: wild type 0, dead -1); higher = more abundant; growth selection in yeast, the domain comes from the species named. To be noted: Homo sapiens.
Consider RDLEAFAERFKQRRIKLGVTQADVGSALANLKCPGVGSLSQSTICRFESLTLSHNNMIALKPILQAWLEEAE [I33C], for which the abundance fitness is -0.395 ± 0.22.

Consider RDLEAFAERFKQRRIKLGVTQADVGSALANLKMPGVGSLSQSTICRFESLTLSHNNMIALKPILQAWLEEAE [I33M], for which the abundance fitness was -0.162 ± 0.094.

RDLEAFAERFKQRRIKLGVTQADVGSALANLKLPGVGSLSQSTICRFESLTLSHNNMIALKPILQAWLEEAE [I33L]: the abundance fitness was -0.081 ± 0.066.

On to RDLEAFAERFKQRRIKLGVTQADVGSALANLKIPGVGSLSQSLICRFESLTLSHNNMIALKPILQAWLEEAE [T43L], for which the abundance fitness is -0.053 ± 0.051.

RDLEAFAERFKQRRIKLGVTQADVGSALANLKIPGVGSLSQSTIFRFESLTLSHNNMIALKPILQAWLEEAE [C45F]: the abundance fitness is -0.041 ± 0.19.

RDLEAFAERFKQRRIKLGVTQADVGWALANLKIPGVGSLSQSTICRFESLTLSHNNMIALKPILQAWLEEAE [S26W]: the abundance fitness came out at 0.008 ± 0.093.

RDLEAFAERFKQRRIKLGVTQADVGNALANLKIPGVGSLSQSTICRFESLTLSHNNMIALKPILQAWLEEAE [S26N]: the abundance fitness is 0.239 ± 0.2.

In the case of RDLEAFAERFKQRRIKLGVTQADVGKALANLKIPGVGSLSQSTICRFESLTLSHNNMIALKPILQAWLEEAE [S26K], the abundance fitness was -0.176 ± 0.35.

RDLEAFAERFKQRRIKLGVTQADVGSALANLKIPGAGSLSQSTICRFESLTLSHNNMIALKPILQAWLEEAE [V36A]: the abundance fitness is -0.18 ± 0.085.

In the case of RDLEAFAERFKQRRIKLGVTQADVGSALANLKIPGVGSLSQSTICRFESLTNSHNNMIALKPILQAWLEEAE [L52N], the abundance fitness is -0.997 ± 0.18.

With RDLEAFAERFKQRRIKLGVTQADVGSALANLKIPGVGSLSQSTICKFESLTLSHNNMIALKPILQAWLEEAE [R46K], the abundance fitness amounted to 0.033 ± 0.12.

On to RDLEAFAERFKQRRIKLGVTQADVGSALANLKIPGVGSLSQSTICDFESLTLSHNNMIALKPILQAWLEEAE [R46D], for which the abundance fitness is 0.094 ± 0.14.

Turning to RDLEAFAERFKQRRIKLGVTQADVGSALANLKIPGVGSLSQSTICWFESLTLSHNNMIALKPILQAWLEEAE [R46W], the abundance fitness was -0.567 ± 0.16.

For the variant RDLEAFAERFKQRRIKLGVTQADVGSALANLKIPGVGSLSQSTICRFESLTLSHNNMIALKIILQAWLEEAE [P62I], the abundance fitness was -0.638 ± 0.17.

With RDLEAFAERFKQRRIKLGVTQADVGSMLANLKIPGVGSLSQSTICRFESLTLSHNNMIALKPILQAWLEEAE [A27M], the abundance fitness is -0.234 ± 0.092.

Take RDLEAFAERFKQRRIMLGVTQADVGSALANLKIPGVGSLSQSTICRFESLTLSHNNMIALKPILQAWLEEAE [K16M]: the abundance fitness worked out at 0.11 ± 0.12.

With RDLEAFAERFKQRRIKLGVTQADVGSALANLKIPGVGSLSQSTICRPESLTLSHNNMIALKPILQAWLEEAE [F47P], the abundance fitness is -0.897 ± 0.19.

For the variant RDLEAFAERFKQRRIKLGVTQADVGSALANLKIPGVGSLSQSTICRGESLTLSHNNMIALKPILQAWLEEAE [F47G], the abundance fitness was -0.834 ± 0.16.

As to RDLEAFAERFKQRRIKLGVTQADVGSALANLKIPGVGSLSQSTICRNESLTLSHNNMIALKPILQAWLEEAE [F47N], the abundance fitness is -0.871 ± 0.37.

With RDLEAFAERFKQRRIKLGVTRADVGSALANLKIPGVGSLSQSTICRFESLTLSHNNMIALKPILQAWLEEAE [Q21R], the abundance fitness is -0.111 ± 0.043.

With RDLEAFAERFKQRRIKLGVTVADVGSALANLKIPGVGSLSQSTICRFESLTLSHNNMIALKPILQAWLEEAE [Q21V], the abundance fitness worked out at 0.002 ± 0.07.

Consider RDLEAFAERFKQRRIKLGVTQADVGSALANLKIPGVGSLSQSTICRFESLTLSHNNMIALKPILWAWLEEAE [Q65W], for which the abundance fitness was -0.504 ± 0.18.

Turning to RDLEAFAERFKQRYIKLGVTQADVGSALANLKIPGVGSLSQSTICRFESLTLSHNNMIALKPILQAWLEEAE [R14Y], the abundance fitness was -0.594 ± 0.32.

Consider RDLEAFAERFKQRRIKLGTTQADVGSALANLKIPGVGSLSQSTICRFESLTLSHNNMIALKPILQAWLEEAE [V19T], for which the abundance fitness is -0.307 ± 0.067.

For the variant RDLEAFAERFKQRRIKLGFTQADVGSALANLKIPGVGSLSQSTICRFESLTLSHNNMIALKPILQAWLEEAE [V19F], the abundance fitness is -0.103 ± 0.13.

As to RDLEAFAERFKQRRIKLGVTQADVGSALANLKIPGVGSLSQSTICRFESLTLVHNNMIALKPILQAWLEEAE [S53V], the abundance fitness was -0.492 ± 0.11.

Consider RDLEAFAERFKQRRIKLGVTQADVGSALANLKIPGVGSLSQSTICRFESLTLEHNNMIALKPILQAWLEEAE [S53E], for which the abundance fitness was -0.066 ± 0.12.

For the variant RDLEAFAERFKQRRIKLGVTQADVGSALANLKIPGVGSLSQSTICRFESLTLSHNNMIALKPILQAWLREAE [E69R], the abundance fitness was -0.211 ± 0.07.

Consider RDLEAFAERFKQRRIKLGVTQADVGSALANLKIPGVGSLSQSTICRFESLTLSHNNMIALKPILQAWLEEFE [A71F], for which the abundance fitness was -0.02 ± 0.15.

For the variant RDLEAFAERFKQRRIKLGVTQADVGSALANLKIPGVGSLSQSTICRFESLTLSHNNMIALKPILQAWLEEPE [A71P], the abundance fitness was -0.671 ± 0.17.

For the variant RDLEAFAERFKQRRIKLGVTQADVGSALANLKIPGVGSLSQSTICRFESLTLSHNNMIALKPILQAWLEENE [A71N], the abundance fitness was -0.225 ± 0.23.

Turning to RDLEAFAERFKQRRIKLGVTQADVGSALANLKIPGVGSLSQSTICRFESLTLSHNNMIALKPILQAWLEEME [A71M], the abundance fitness is -0.4 ± 0.17.

In the case of RDLEAFAERFKQRRIKLGVTQADVGSALANLKIPGVGSLSQSTICRFESRTLSHNNMIALKPILQAWLEEAE [L50R], the abundance fitness was -0.077 ± 0.055.

Take RDLEAFAERFKQRRIKLGVTQADVGSALANLKIPGVGSLSQSTICRFESLTLSHKNMIALKPILQAWLEEAE [N55K]: the abundance fitness is -0.016 ± 0.15.

Take RDLEAFAERFEQRRIKLGVTQADVGSALANLKIPGVGSLSQSTICRFESLTLSHNNMIALKPILQAWLEEAE [K11E]: the abundance fitness was -0.914 ± 0.34.

Consider RDLEAFAERFKQRRIKLGVTQADVGSALANLKIPGVGSLSQSTICRFESLYLSHNNMIALKPILQAWLEEAE [T51Y], for which the abundance fitness was -0.567 ± 0.21.

Take RDLEAFAERFKQRRIKLGVTQADVGSALANLKIPGVGSLSQSTICRFESLQLSHNNMIALKPILQAWLEEAE [T51Q]: the abundance fitness was -0.041 ± 0.086.

As to RDLEAFAERFKQRRIKLGVTQADVGSALANLKIPGVMSLSQSTICRFESLTLSHNNMIALKPILQAWLEEAE [G37M], the abundance fitness is -0.163 ± 0.085.

For RDLEAFAERFKQRRIKLGVTQADVGSALANLKIPGVQSLSQSTICRFESLTLSHNNMIALKPILQAWLEEAE [G37Q], the abundance fitness was -0.015 ± 0.097.
